In assay [1] the target is T1, EGFR (UniProt P00533 25-1210, limits assumed).
T1 construct: whole, on cells; the cell lines are human tumor lines
The assay is described as follows: flow cytometry, serial dilution on T-47-D cells (EGFR-expressing), PE anti-human Fc detection. Here is the method: (§1) Binding analysis of the trivalent, bispecific antibodies was performed by flow cytometry using tumor cell lines with different EGFR-expression levels (FIG. 20) (Table 12). Adherent cells were washed with PBS and shortly trypsinized at 37° C. Trypsin was quenched with FCS-containing medium and removed by centrifugation (500×g, 5 min.). Target cells (FaDu, LIM1215, SKBR-3, T-47-D, MCF-7 and Jurkat cells) at 1×10⁵ cells/well were incubated with a serial dilution of trivalent, bispecific antibodies for 1 h at 4° C. After removing excess of recombinant protein by washing with PBA (PBS, 2% FBS, and 0.02% sodium azide), bound protein was detected using PE-conjugated anti-human Fc mAb (Jackson ImmunoResearch Laboratories Inc). Fluorescence was measured using MACSquant VYB (Miltenyi Biotec) and data were analyzed using FlowJo (Tree Star). Relative median fluorescence intensities (MFI) were calculated as followed: relative MFI=((MFIₛₐₘₚₗₑ-(MFIdetection-MFIcells))/MFIcells).
(In general: Flow cytometry measures light scatter and fluorescence of single cells or particles in a stream.)

The target in assay [2] is T1, EGFR. The assay is described as follows: cell-based or functional assay.
In assay [3] the target is T1, EGFR. The experiment in a line: flow cytometry, serial dilution on SKBR-3 cells (EGFR-expressing), PE anti-human Fc detection. How it is done:
as §1

For assay [4], the target named is T1, EGFR. The assay is described as follows: flow cytometry, serial dilution on LIM1215 cells (EGFR-expressing), PE anti-human Fc detection. Here is the method:
as §1

Assay [5] addresses T1, EGFR. The experiment in a line: flow cytometry, serial dilution on FaDu cells (EGFR-expressing), PE anti-human Fc detection. How it is done: as §1
Assay [6] concerns the target T2, CD3 (UniProt P07766 23-207).
T2 construct: whole, on cells; on cells it stands in the TCR/CD3 complex; also called CD3 on Jurkat cells
The assay is described as follows: flow cytometry, serial dilution on Jurkat cells (CD3-expressing), PE anti-human Fc detection. Here is the method: as §1

In assay [7] the target is T1, EGFR. The experiment in a line: flow cytometry, serial dilution on MCF-7 cells (EGFR-expressing), PE anti-human Fc detection. Here is the method:
as §1

The target of assay [8] is T2, CD3. The assay is described as follows: flow cytometry, serial dilution on Jurkat cells (CD3-expressing), PE anti-human Fc detection. Here is the method:
(§2) Binding of trivalent, bispecific fusion proteins to CEA-expressing (LIM1215) and CD3-expressing (Jurkat) cell lines was analyzed by flow cytometry. 2×10⁵ cells/well were incubated with a serial dilution of trivalent, bispecific antibodies for 1 h at 4° C. followed by detection using a PE-conjugated anti-human Fc antibody (Jackson ImmunoResearch Laboratories Inc). […] Regarding the CEA-expressing cell line LIM1215, the trivalent, bispecific antibodies bound with EC₅₀ values in the nanomolar range (FIG. 16A) (Table 9).
This is another data set of the same source.

Assay [9] concerns the target T3, CEA (UniProt P06731 35-685).
T3 construct: whole, on cells
T3 sequence (looked up): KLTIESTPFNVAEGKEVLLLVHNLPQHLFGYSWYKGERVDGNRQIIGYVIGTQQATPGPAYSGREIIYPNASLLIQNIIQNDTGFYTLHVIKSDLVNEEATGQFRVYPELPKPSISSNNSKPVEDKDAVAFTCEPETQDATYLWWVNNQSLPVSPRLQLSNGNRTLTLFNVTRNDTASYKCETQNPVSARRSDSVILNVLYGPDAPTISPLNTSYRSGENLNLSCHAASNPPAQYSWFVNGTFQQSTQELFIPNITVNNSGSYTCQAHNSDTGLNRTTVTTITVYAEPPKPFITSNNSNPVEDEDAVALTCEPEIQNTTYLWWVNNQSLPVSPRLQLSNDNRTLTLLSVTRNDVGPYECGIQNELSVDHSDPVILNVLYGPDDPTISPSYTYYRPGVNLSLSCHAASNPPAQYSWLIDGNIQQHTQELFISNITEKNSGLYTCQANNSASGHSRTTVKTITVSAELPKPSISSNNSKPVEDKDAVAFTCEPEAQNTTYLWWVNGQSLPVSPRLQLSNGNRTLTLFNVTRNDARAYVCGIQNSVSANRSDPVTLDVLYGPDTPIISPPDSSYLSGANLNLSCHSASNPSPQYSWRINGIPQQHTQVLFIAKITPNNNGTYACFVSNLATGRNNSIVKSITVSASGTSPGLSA
The assay is described as follows: flow cytometry, serial dilution on LIM1215 cells (CEA-expressing), PE anti-human Fc detection. How it is done: as §2

Assay [10] addresses T3, CEA. The assay is described as follows: cell-based or functional assay.
Assay [11] has as its target T3, CEA. The experiment in a line: cell-based or functional assay. The source holds these as a separate data set.

Where two headings read alike, the source gives them in different places.

B1: scDb/scFv-Fc (1-2)+1, trivalent bispecific anti-EGFRxanti-CD3 (bispecific antibody)
chain 1: EVQLVESGGGLVQPGGSLRLSCAASGFSLTNYGVHWVRQAPGKGLEWLGVIWSGGNTDYNTPFTSRFTISRDNSKNTLYLQMNSLRAEDTAVYYCARALTYYDYEFAYWGQGTTVTVSSGGGGSDIQMTQSPSSLSASVGDRVTITCRASQDIRNYLNWYQQKPGKAPKLLIYYTSRLHSGVPSRFSGSGSGTDFTFTISSLQPEDIATYYCQQGNTLPWTFGQGTKLEIKRGGGGSGGGGSGGGGSQVQLVQSGAEVKKPGSSVKVSCKASGGTFSGYTMNWVRQAPGQGLEWMGLINPYKGVSTYNGKFKDRVTITADKSTSTAYMELSSLRSEDTAVYYCARSGYYGDSDWYFDVWGQGTLVTVSSGGGGSDIQLTQSPSFLSASVGDRVTITCRASQSIGTNIHWYQQKPGKAPKLLIKYASESISGVPSRFSGSGSGTEFTLTISSLQPEDFATYYCQQNNNWPTTFGAGTKLEIKRAAADKTHTCPPCPAPPVAGPSVFLFPPKPKDTLMISRTPEVTCVVVDVSHEDPEVKFNWYVDGVEVHNAKTKPREEQYNSTYRVVSVLTVLHQDWLNGKEYKCKVSNKGLPSSIEKTISKAKGQPREPQVCTLPPSRDELTKNQVSLSCAVKGFYPSDIAVEWESNGQPENNYKTTPPVLDSDGSFFLVSKLTVDKSRWQQGNVFSCSVMHEALHNHYTQKSLSLSPGK
chain 2: EVQLVESGGGLVQPGGSLRLSCAASGFSLTNYGVHWVRQAPGKGLEWLGVIWSGGNTDYNTPFTSRFTISRDNSKNTLYLQMNSLRAEDTAVYYCARALTYYDYEFAYWGQGTTVTVSSGGGGSGGGGSGGGGSDIQLTQSPSFLSASVGDRVTITCRASQSIGTNIHWYQQKPGKAPKLLIKYASESISGVPSRFSGSGSGTEFTLTISSLQPEDFATYYCQQNNNWPTTFGAGTKLEIKRAAADKTHTCPPCPAPPVAGPSVFLFPPKPKDTLMISRTPEVTCVVVDVSHEDPEVKFNWYVDGVEVHNAKTKPREEQYNSTYRVVSVLTVLHQDWLNGKEYKCKVSNKGLPSSIEKTISKAKGQPREPQVYTLPPCRDELTKNQVSLWCLVKGFYPSDIAVEWESNGQPENNYKTTPPVLDSDGSFFLYSKLTVDKSRWQQGNVFSCSVMHEALHNHYTQKSLSLSPGK
notes: also called scDbhu225xhuU3-Fc(hole)Δab + scFvhu225-Fc(knob)Δab
Consider B1, for which the EC50 came to 0.02 nM with EGFR [1]; 0.09 nM with EGFR [3]; 0.2 nM with EGFR [4]; 1.1 nM with EGFR [5]; 9.6 nM with CD3 [6]; 0.03 nM with EGFR [7]. For the same molecule, the “EC50 of PBMC cytotoxicity on FaDu cells, E:T 5:1” value with EGFR [2] came to 0.026 nM. Moreover, the “EC50 of PBMC cytotoxicity on SKBR-3 cells, E:T 5:1” value with EGFR [2] turned out to be 0.126 nM.

B2: scDb/Fab-Fc (1-2)+1, trivalent bispecific anti-EGFRxanti-CD3 (bispecific antibody)
chain: B1 chain 1
heavy: EVQLVESGGGLVQPGGSLRLSCAASGFSLTNYGVHWVRQAPGKGLEWLGVIWSGGNTDYNTPFTSRFTISRDNSKNTLYLQMNSLRAEDTAVYYCARALTYYDYEFAYWGQGTTVTVSSASTKGPSVFPLAPSSKSTSGGTAALGCLVKDYFPEPVTVSWNSGALTSGVHTFPAVLQSSGLYSLSSVVTVPSSSLGTQTYICNVNHKPSNTKVDKKVEPKSCGTDKTHTCPPCPAPPVAGPSVFLFPPKPKDTLMISRTPEVTCVVVDVSHEDPEVKFNWYVDGVEVHNAKTKPREEQYNSTYRVVSVLTVLHQDWLNGKEYKCKVSNKGLPSSIEKTISKAKGQPREPQVYTLPPCRDELTKNQVSLWCLVKGFYPSDIAVEWESNGQPENNYKTTPPVLDSDGSFFLYSKLTVDKSRWQQGNVFSCSVMHEALHNHYTQKSLSLSPGK
light: DIQLTQSPSFLSASVGDRVTITCRASQSIGTNIHWYQQKPGKAPKLLIKYASESISGVPSRFSGSGSGTEFTLTISSLQPEDFATYYCQQNNNWPTTFGAGTKLEIKRTVAAPSVFIFPPSDEQLKSGTASVVCLLNNFYPREAKVQWKVDNALQSGNSQESVTEQDSKDSTYSLSSTLTLSKADYEKHKVYACEVTHQGLSSPVTKSFNRGEC
notes: also called scDbhu225xhuU3-Fc(hole)Δab + Fdhu225-Fc(knob)Δab + VLhu225-CLκ
For the molecule B2, the EC50 with EGFR [1] was found to be 0.03 nM; in the assay with EGFR [3] it was 0.1 nM; with EGFR [4], 0.2 nM; in the assay with EGFR [5], 0.2 nM; with CD3 [6] it was 1 nM; in the assay with EGFR [7], 0.04 nM. The “EC50 of PBMC cytotoxicity on FaDu cells, E:T 5:1” value with EGFR [2] turned out to be 0.05 nM. In addition, the “EC50 of PBMC cytotoxicity on SKBR-3 cells, E:T 5:1” value in the assay with EGFR [2] was 0.209 nM.

B3: scDb/Fab-Fc (2-1)+1, trivalent bispecific anti-CEAxanti-CD3 (bispecific antibody, human IgG1, kappa)
chain: QVQLVQSGAEVKKPGSSVKVSCKASGGTFSGYTMNWVRQAPGQGLEWMGLINPYKGVSTYNGKFKDRVTITADKSTSTAYMELSSLRSEDTAVYYCARSGYYGDSDWYFDVWGQGTLVTVSSGGGGSDIELTQSPAIMSASPGEKVTITCSASSSVSYMHWFQQKPGTSPKLWIYSTSNLASGVPARFSGSGSGTSYSLTISRMEAEDAATYYCQQRSSYPLTFGAGTKLELKRGGGGSGGGGSGGGGSQVKLQQSGAELVRSGTSVKLSCTASGFNIKDSYMHWLRQGPEQGLEWIGWIDPENGDTEYAPKFQGKATFTTDTSSNTAYLQLSSLTSEDTAVYYCNEGTPTGPYYFDYWGQGTTVTVSSGGGGSDIQMTQSPSSLSASVGDRVTITCRASQDIRNYLNWYQQKPGKAPKLLIYYTSRLHSGVPSRFSGSGSGTDFTFTISSLQPEDIATYYCQQGNTLPWTFGQGTKLEIKRAAADKTHTCPPCPAPPVAGPSVFLFPPKPKDTLMISRTPEVTCVVVDVSHEDPEVKFNWYVDGVEVHNAKTKPREEQYNSTYRVVSVLTVLHQDWLNGKEYKCKVSNKGLPSSIEKTISKAKGQPREPQVCTLPPSRDELTKNQVSLSCAVKGFYPSDIAVEWESNGQPENNYKTTPPVLDSDGSFFLVSKLTVDKSRWQQGNVFSCSVMHEALHNHYTQKSLSLSPGK
heavy: QVKLQQSGAELVRSGTSVKLSCTASGFNIKDSYMHWLRQGPEQGLEWIGWIDPENGDTEYAPKFQGKATFTTDTSSNTAYLQLSSLTSEDTAVYYCNEGTPTGPYYFDYWGQGTTVTVSSASTKGPSVFPLAPSSKSTSGGTAALGCLVKDYFPEPVTVSWNSGALTSGVHTFPAVLQSSGLYSLSSVVTVPSSSLGTQTYICNVNHKPSNTKVDKKVEPKSCDKTHTCPPCPAPPVAGPSVFLFPPKPKDTLMISRTPEVTCVVVDVSHEDPEVKFNWYVDGVEVHNAKTKPREEQYNSTYRVVSVLTVLHQDWLNGKEYKCKVSNKGLPSSIEKTISKAKGQPREPQVYTLPPCRDELTKNQVSLWCLVKGFYPSDIAVEWESNGQPENNYKTTPPVLDSDGSFFLYSKLTVDKSRWQQGNVFSCSVMHEALHNHYTQKSLSLSPGK
light: DIELTQSPAIMSASPGEKVTITCSASSSVSYMHWFQQKPGTSPKLWIYSTSNLASGVPARFSGSGSGTSYSLTISRMEAEDAATYYCQQRSSYPLTFGAGTKLELKRRTVAAPSVFIFPPSDEQLKSGTASVVCLLNNFYPREAKVQWKVDNALQSGNSQESVTEQDSKDSTYSLSSTLTLSKADYEKHKVYACEVTHQGLSSPVTKSFNRGEC
notes: also called scDbhuU3xCEA-Fc(hole)Δab + VHCEA-CH1-Fc(knob)Δab + VLCEA-CLκ
On to B3, for which the EC50 with CD3 [8] amounted to 6.1 nM; with CEA [9], 2.1 nM. Further, the “EC50 of IL-2 release, PBMCs co-cultured with LIM1215 cells” value in the assay with CEA [10] was found to be 3.5 nM. Moreover, the “EC50 of PBMC cytotoxicity on LIM1215 cells, E:T 10:1” value with CEA [11] is 1.2 nM.

The term EC50 denotes the concentration giving half of the maximal effect.

The values are drawn from US20220396635A1 (UNIVERSIT T STUTTGART, published 2022).
